Laboratory results published in US20160354437A1 (NORTHWESTERN UNIVERSITY, published 2016).

T1: AIM2 (human, UniProt O14862 1-343)
T1 construct: Endogenous in THP-1 lysates and hMΦ; N-terminally tagged (RFP, myc) where transfected into HEK293; also called endogenous AIM2; RFP-AIM2
T1 sequence (looked up): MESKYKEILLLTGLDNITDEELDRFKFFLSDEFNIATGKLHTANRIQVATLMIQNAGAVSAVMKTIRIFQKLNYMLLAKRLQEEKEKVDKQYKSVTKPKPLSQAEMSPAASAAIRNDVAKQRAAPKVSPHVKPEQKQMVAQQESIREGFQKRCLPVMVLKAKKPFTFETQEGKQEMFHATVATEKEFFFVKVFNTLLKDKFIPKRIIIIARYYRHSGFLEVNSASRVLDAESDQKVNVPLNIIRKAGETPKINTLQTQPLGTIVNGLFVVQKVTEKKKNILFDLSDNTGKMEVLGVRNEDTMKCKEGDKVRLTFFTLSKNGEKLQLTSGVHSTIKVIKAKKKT

T2: mouse ASC (mouse, UniProt Q9EPB4 1-193)
T2 construct: also called mASC; endogenous ASC in BMDM
T2 sequence (looked up): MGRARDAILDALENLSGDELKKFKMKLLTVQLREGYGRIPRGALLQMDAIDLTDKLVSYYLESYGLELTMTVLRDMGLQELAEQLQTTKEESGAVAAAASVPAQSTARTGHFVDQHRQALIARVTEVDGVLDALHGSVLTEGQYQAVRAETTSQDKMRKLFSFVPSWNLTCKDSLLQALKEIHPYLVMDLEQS

T3: AIM2 from BMDM (mouse, UniProt Q91VJ1 1-354)
T3 construct: also called mAIM2; mouse AIM2
T3 sequence (looked up): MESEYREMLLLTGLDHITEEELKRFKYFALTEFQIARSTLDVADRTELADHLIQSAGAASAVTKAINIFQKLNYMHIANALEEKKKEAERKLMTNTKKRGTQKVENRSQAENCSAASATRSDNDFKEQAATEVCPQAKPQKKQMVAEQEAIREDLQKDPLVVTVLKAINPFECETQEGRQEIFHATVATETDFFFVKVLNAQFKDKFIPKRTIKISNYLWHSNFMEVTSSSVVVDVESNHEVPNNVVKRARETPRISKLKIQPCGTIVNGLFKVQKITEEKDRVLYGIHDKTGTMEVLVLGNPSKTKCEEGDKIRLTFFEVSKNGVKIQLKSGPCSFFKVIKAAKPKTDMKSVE

B1: POP3 (other)
chain: MESKYKEILLLTSLDNITDEELDRFKCFLPDEFNIATGKLHTLNSTSSQLDLKRWHGVCSEEDRIFQKLNYMLVAKCLREEQETGICGSPSSARSVSQSRLGLSFHGISGNAC
notes: POP3 as expressed in cells (HEK293, THP-1, hMΦ); in some microscopy endogenous POP3; also called GFP-POP3; PYRIN domain-only protein 3; not shown: N-terminal tag; GFP-POP3 is named for the co-IP, constructs with myc, HA, Flag, GFP or RFP were made
B2: GST-POP3 (other)
chain: B1 chain
notes: also called recombinant POP3; immobilized GST-POP3; not shown: glutathione S-transferase (GST) tag encoded by pGEX-4T1
B3: GST-POP1 (other)
chain: MGTKREAILKVLENLTPEELKKFKMKLGTVPLREGFERIPRGALGQLDIVDLTDKLVASYYEDYAAELVVAVLRDMRMLEEAARLQRAA
notes: also called immobilized GST-POP1; not shown: glutathione S-transferase (GST) tag encoded by pGEX-4T1
B4: PYD of IFI16 (other, human, UniProt Q16666 1-88, looked up)
chain: MGKKYKNIVLLKGLEVINDYHFRMVKSLLSNDLKLNLKMREEYDKIQIADLMEEKFRGDAGLGKLIKIFEDIPTLEDLAETLKKEKLK
notes: domain: PYD; also called IFI16-PYD; IF116 PYD
B5: PYD of MNDA (other, human, UniProt P41218 1-88, looked up)
chain: MVNEYKKILLLKGFELMDDYHFTSIKSLLAYDLGLTTKMQEEYNRIKITDLMEKKFQGVACLDKLIELAKDMPSLKNLVNNLRKEKSK
notes: domain: PYD; also called MNDA-PYD
B6: PYD of AIM2 (other, human, UniProt O14862 1-87, looked up)
chain: MESKYKEILLLTGLDNITDEELDRFKFFLSDEFNIATGKLHTANRIQVATLMIQNAGAVSAVMKTIRIFQKLNYMLLAKRLQEEKEK
notes: domain: PYD; Made by in vitro transcription/translation for the GST pull-down; GFP- or RFP-tagged in HEK293 for the antibody specificity blot; also called AIM2-PYD
B7: PYD of PYHIN1 (other, human, UniProt Q6K0P9 1-88, looked up)
chain: MANNYKKIVLLKGLEVINDYHFRIVKSLLSNDLKLNPKMKEEYDKIQIADLMEEKFPGDAGLGKLIEFFKEIPTLGDLAETLKREKLK
notes: domain: PYD; also called IFIX-PYD

Legend:
co-IP in HEK293 cells = molecular target: the molecule itself; assay: co-IP in HEK293 cells
AIM2 [1] = molecular target: T1, AIM2; assay: figure title (pull-down, co-IP, co-localisation)
mouse ASC = molecular target: T2, mouse ASC; assay: GST pull-down from BMDM lysates (FIG. 11a)
Procedure: For GST pull down experiments, POP3 was cloned into pGEX-4T1 and affinity purified as a GST fusion protein from E. coli BL21. Proteins were either prepared by in vitro transcription/translation (TNT Quick Coupled Transcription/Translation, Promega), or TCL were prepared from […] (16 hrs) BMDM or THP-1 cells by lysis (50 mM Hepes pH 7.4, 120 mM NaCl, 10% Glycerol, 2 mM EDTA, 0.5% Triton X-100, supplemented with protease inhibitors) as a source of endogenous proteins, and cleared lysates were incubated with immobilized GST-POP3 or GST control for 16 hrs at 4° C., followed by extensive washing with lysis buffer and analysis as above. For ASC cross-linking, 4×10⁶ BMDM were seeded in 60 mm plates and subjected to cross-linking as described 55. […] Samples were centrifuged at 5,000 rpm for 10 min at 4° C. and the cross-linked pellets were resuspended in 50 μl Laemmli sample buffer and analyzed by immunoblot. […]
The PYDs of human and mouse ALRs are well conserved. […] To delineate the mechanism by which POP3 inhibits ALR inflammasomes in mouse macrophages, ASC oligomerization was analyzed in response to AIM2 inflammasome stimulation with poly(dA:dT) in WT and CD68-POP3 TG BMDM as a readout for AIM2 inflammasome formation (Fernandes-Alnemri et al. Nature.

NLRP3 from BMDM = molecular target: T4, NLRP3 from BMDM (mouse, UniProt Q8R4B8 1-1033); assay: GST pull-down from BMDM lysates (FIG. 22c)
T4 construct: also called mNLRP3; mouse NLRP3
Procedure: (§1) POP1 was expressed from pGEX-4T1 and affinity purified as a GST fusion protein from E. coli BL21 (Stehlik et al. Biochem. J 373, 101-113 (2003); herein incorporated by reference in its entirety). Protein lysates were prepared from LPS-treated (16 h) BMDM or THP-1 cells by lysis (50 mM Hepes pH 7.4, 120 mM NaCl, 10% Glycerol, 2 mM EDTA, 0.5% Triton X-100, supplemented with protease inhibitors), and cleared lysates were incubated with immobilized GST-POP1 or GST control for 16 h at 4° C., followed by extensive washing with lysis buffer and analysis as above.

AIM2 from BMDM = molecular target: T3, AIM2 from BMDM; assay: GST pull-down from BMDM lysates (FIG. 22c)
Procedure: as §1

AIM2 [2] = molecular target: T1, AIM2; assay: GST pull-down from THP-1 lysates (FIG. 18a)
Procedure: as §1
(§2) Recruitment of ASC to upstream sensors is essential for inflammasome activation. POP1 specifically bound to endogenous ASC, but not to the PYD-containing PRRs NLRP3 and AIM2 in LPS-primed THP-1 cells (FIG. 18a), emphasizing the selectivity of these interactions. […] Binding of ASC to NLRP3 induces ASC^PYD nucleation, which provides the oligomeric platform essential for caspase-1 activation (Lu et al. Cell 156, 1193-206 (2014); Cai et al. Cell 156, 1207-22 (2014); herein incorporated by reference in their entireties). […] POP1 binding to the ASC^PYD could also directly prevent ASC^PYD self-polymerization.

NLRP3 = molecular target: T5, NLRP3 (human, UniProt Q96P20 1-1036); assay: GST pull-down from THP-1 lysates (FIG. 18a)
T5 construct: Endogenous in THP-1 lysates; MYC-tagged where transfected into HEK293; also called MYC-NLRP3; endogenous NLRP3
Procedure: as §1, §2

GST control = molecular target: T6, GST control (UniProt P08515 1-218 = GST); assay: GST pull-down (FIG. 4a)
T6 construct: Negative control of the GST pull-downs
Procedure: (§3) For GST pull down experiments, POP3 was cloned into pGEX-4T1 and affinity purified as a GST fusion protein from E. coli BL21. Proteins were either prepared by in vitro transcription/translation (TNT Quick Coupled Transcription/Translation, Promega), or TCL were prepared from […] (16 hrs) BMDM or THP-1 cells by lysis (50 mM Hepes pH 7.4, 120 mM NaCl, 10% Glycerol, 2 mM EDTA, 0.5% Triton X-100, supplemented with protease inhibitors) as a source of endogenous proteins, and cleared lysates were incubated with immobilized GST-POP3 or GST control for 16 hrs at 4° C., followed by extensive washing with lysis buffer and analysis as above. For ASC cross-linking, 4×10⁶ BMDM were seeded in 60 mm plates and subjected to cross-linking as described 55. Briefly, cells were transfected with 1 μg/ml poly (dA:dT) for 5 hrs, supernatants were removed, cells rinsed with ice-cold PBS and lysed (20 mM Hepes pH 7.4, 100 mM NaCl, 1% NP-40, 1 mM sodium orthovanadate, supplemented with protease inhibitors) and further lysed by shearing. Cleared lysates were stored for immunoblot analysis and the insoluble pellets were resuspended in 500 μl PBS, supplemented with 2 mM disuccinimydyl suberate (DSS, Pierce) and incubated with rotation at room temperature for 30 min. Samples were centrifuged at 5,000 rpm for 10 min at 4° C. and the cross-linked pellets were resuspended in 50 μl Laemmli sample buffer and analyzed by immunoblot. Human lung tissue was embedded in paraffin, cut into 3 μm sections, mounted, deparaffinized and immunostained with mouse monoclonal CD68 (Dako) and rabbit polyclonal POP3 and peroxidase (HRP)/DAB+ and alkaline phosphatase (AP)/Fast Red enzyme/chromogen combinations (Dako) and specific isotype controls (Dako) and haemotoxylin counterstaining of nuclei.
(§4) GST-POP3, but not GST control, bound to the PYD of AIM2 and IF116.

GST-POP3 = molecular target: B2; assay: GST pull-down (FIG. 4a)
Procedure: as §3, §4

T6 sequence (P08515 whole entry): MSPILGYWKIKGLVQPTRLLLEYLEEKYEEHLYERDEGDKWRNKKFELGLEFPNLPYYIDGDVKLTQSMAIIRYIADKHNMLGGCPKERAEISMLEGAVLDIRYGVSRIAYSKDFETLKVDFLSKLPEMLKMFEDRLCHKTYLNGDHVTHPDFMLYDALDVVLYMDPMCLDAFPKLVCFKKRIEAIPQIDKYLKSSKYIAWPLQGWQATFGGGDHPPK
T5 sequence (Q96P20 whole entry): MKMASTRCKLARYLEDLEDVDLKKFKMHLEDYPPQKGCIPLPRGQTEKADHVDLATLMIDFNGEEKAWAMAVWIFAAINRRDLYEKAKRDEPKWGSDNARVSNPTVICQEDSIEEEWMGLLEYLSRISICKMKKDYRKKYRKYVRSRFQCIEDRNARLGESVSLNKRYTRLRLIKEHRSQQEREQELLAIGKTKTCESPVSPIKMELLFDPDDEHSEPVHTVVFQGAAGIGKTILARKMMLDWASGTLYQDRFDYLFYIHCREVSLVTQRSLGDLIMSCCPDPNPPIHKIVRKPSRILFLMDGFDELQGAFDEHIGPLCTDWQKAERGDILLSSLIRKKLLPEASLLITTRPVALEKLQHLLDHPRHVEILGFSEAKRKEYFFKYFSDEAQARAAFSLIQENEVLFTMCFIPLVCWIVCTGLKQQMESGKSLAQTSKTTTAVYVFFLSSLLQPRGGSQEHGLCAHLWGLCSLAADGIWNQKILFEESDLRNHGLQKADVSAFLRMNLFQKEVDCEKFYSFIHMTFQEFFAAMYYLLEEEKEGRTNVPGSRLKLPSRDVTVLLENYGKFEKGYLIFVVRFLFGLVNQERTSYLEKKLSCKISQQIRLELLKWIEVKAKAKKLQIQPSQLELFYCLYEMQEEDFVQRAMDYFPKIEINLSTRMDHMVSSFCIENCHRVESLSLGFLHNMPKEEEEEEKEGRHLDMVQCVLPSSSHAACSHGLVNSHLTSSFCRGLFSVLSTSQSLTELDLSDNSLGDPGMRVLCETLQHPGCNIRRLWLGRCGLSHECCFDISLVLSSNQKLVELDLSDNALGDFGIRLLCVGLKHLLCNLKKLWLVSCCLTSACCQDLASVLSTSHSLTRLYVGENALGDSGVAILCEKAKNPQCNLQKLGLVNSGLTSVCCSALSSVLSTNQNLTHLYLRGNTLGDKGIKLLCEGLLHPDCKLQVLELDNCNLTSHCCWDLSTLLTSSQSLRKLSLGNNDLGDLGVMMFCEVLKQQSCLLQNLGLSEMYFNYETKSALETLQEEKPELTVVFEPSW
T4 sequence (Q8R4B8 whole entry): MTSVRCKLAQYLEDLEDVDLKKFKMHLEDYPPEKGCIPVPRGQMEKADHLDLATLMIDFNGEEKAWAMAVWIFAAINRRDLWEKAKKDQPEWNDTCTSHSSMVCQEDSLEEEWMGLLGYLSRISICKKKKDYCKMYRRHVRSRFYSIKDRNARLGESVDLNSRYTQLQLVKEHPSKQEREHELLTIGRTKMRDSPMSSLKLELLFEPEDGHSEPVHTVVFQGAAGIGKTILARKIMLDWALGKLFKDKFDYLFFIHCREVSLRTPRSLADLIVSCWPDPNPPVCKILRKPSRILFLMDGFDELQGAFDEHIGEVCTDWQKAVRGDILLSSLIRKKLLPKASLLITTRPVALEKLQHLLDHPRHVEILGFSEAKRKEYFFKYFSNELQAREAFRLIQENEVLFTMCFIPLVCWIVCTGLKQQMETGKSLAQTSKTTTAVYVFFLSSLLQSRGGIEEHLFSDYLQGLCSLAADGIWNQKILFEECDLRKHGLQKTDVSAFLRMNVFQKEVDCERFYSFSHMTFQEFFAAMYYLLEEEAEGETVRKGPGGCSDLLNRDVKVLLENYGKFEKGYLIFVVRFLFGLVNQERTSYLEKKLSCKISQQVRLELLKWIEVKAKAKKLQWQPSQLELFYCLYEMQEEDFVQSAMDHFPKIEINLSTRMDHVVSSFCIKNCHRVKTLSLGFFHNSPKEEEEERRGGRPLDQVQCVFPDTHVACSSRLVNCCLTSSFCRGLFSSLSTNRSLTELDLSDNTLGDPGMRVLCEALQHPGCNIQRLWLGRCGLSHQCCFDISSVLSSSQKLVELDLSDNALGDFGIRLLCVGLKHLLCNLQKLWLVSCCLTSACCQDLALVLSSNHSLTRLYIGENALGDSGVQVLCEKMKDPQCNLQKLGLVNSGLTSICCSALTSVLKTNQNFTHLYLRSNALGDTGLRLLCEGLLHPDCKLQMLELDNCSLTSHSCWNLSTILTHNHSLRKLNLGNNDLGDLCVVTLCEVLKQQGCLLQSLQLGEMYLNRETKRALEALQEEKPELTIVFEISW

Binder: B1
- binding result (co-IP in HEK293 cells): binds
- binding result (AIM2 [1]): binds

Binder: B2
- binding result (mouse ASC): no binding

Binder: B3
- binding result (NLRP3 from BMDM): no binding
- binding result (AIM2 from BMDM): no binding
- binding result (AIM2 [2]): no binding
- binding result (NLRP3): no binding

Binder: B4
- binding result (GST control): no binding

Binder: B5
- binding result (GST-POP3): no binding

Binder: B6
- binding result (GST control): no binding

Binder: B7
- binding result (GST-POP3): no binding
